Patent publication US20120207760A1

B1: TCN-504 (3251_K17) (antibody, V domains shown)
VH: QVQLQESGPGLVKPSETLSLTCAVSGVSISNIDFYWGWIRQPPGKGLEWIGNIYYTGITFYNPSLSSRVAISIDTSKNQFSLTLTSVTAADTAMYYCARHYGDSEAINDAFDIWGQGTMLTVSS
VL: EIVMTQSPATLSVSPGERATLSCRASQSVGNSLAWYQQRPGQAPRLLIYGASTRATGIPPRFSGSGSGTEFTLTISSLQTEDFAVYYCQQYINWRPLSFGGGTKVEIK
B2: TCN-523 (5248_A17) (antibody, V domains shown)
VH: QVQLVQSGAEVKKPGSSVKVSCKASGGSFSNYAFSWVRQAPGQGLEWMGGTIPLLGTTNYAQKFQGRVTISADQFTSTAYMELGSLRSEDTAVYYCTRRKMTTAFDSWGQGTLVTVSS
VL: QPVLTQPPSASASLGASVTLTCTLSSAYSNYKVDWYQQRPGKGPRFVMRVGTGGIVGSKGDGIPDRFSVLGSGLNRYLTIKNIQEEDESDYHCGADHGSGSNFVSPYVFGGGTKLTVL

Columns and labels:
Settings in all cases: remark: other sources report otherwise
[1] = target: T1, recombinant homotrimeric HA, A/Wisconsin/67/05 H3N2 (Influenza A virus A/Wisconsin/67/05 (H3N2)); assay: trimeric HA microarray, transfection set 5
[2] = target: recombinant soluble homotrimeric HA of A/Hong Kong/2108/03 (H9N2) (Influenza A virus A/Hong Kong/2108/03 (H9N2)); assay: microarray, control antibody, trimeric HA
[3] = target: recombinant soluble homotrimeric HA of A/Hong Kong/2108/03 - H9N2 (Influenza A virus A/HK/2108/2003 (H9N2)); assay: micro-array; captured IgG, V5-tagged trimeric HA
[4] = target: T2, recombinant homotrimeric HA, A/Hong Kong/2108/03 H9N2 (Influenza A virus A/Hong Kong/2108/03 (H9N2)); assay: trimeric HA microarray, transfection set 1
[5] = target: T3, recombinant homotrimeric HA, A/swine/Ontario/01911-2/99 H4N6 (Influenza A virus A/swine/Ontario/01911-2/99 (H4N6)); assay: trimeric HA microarray, transfection set 1
[6] = target: T4, recombinant homotrimeric HA, A/California/4/09 H1N1 (Influenza A virus A/California/4/09 (H1N1)); assay: trimeric HA microarray, transfection set 1
[7] = target: T5, recombinant homotrimeric HA, A/Egypt/3300-NAMRU3/08 H5N1 (Influenza A virus A/Egypt/3300-NAMRU3/08 (H5N1)); assay: trimeric HA microarray, transfection set 1
[8] = target: T6, recombinant homotrimeric HA, A/Indonesia/5/05 H5N1 (Influenza A virus A/Indonesia/5/05 (H5N1)); assay: trimeric HA microarray, transfection set 1
[9] = target: T7, recombinant homotrimeric HA, A/chicken/Vietnam/NCVD-016/08 H5N1 (Influenza A virus A/chicken/Vietnam/NCVD-016/08 (H5N1)); assay: trimeric HA microarray, transfection set 1
[10] = target: T8, recombinant homotrimeric HA, A/Solomon Islands/3/06 H1N1 (Influenza A virus A/Solomon Islands/3/06 (H1N1)); assay: trimeric HA microarray, transfection set 1
[11] = target: recombinant homotrimeric HA, A/duck/Yangzhou/02/05 H8N4 (Influenza A virus A/duck/Yangzhou/02/2005 (H8N4)); assay: trimeric HA microarray, transfection set 3
[12] = target: recombinant homotrimeric HA, A/Netherlands/219/03 H7N7 (Influenza A virus A/Netherlands/219/03 (H7N7)); assay: trimeric HA microarray, transfection set 3
[13] = target: recombinant homotrimeric HA, A/Anhui/1/05 H5N1 (Influenza A virus A/Anhui/1/05 (H5N1)); assay: trimeric HA microarray, transfection set 3
[14] = target: T1, recombinant homotrimeric HA, …; assay: trimeric HA microarray, transfection set 3
[15] = target: recombinant homotrimeric HA, A/Japan/305/57 H2N2 (Influenza A virus A/Japan/305/57 (H2N2)); assay: trimeric HA microarray, transfection set 2
[16] = target: T2, recombinant homotrimeric HA, A/Hong …; assay: trimeric HA microarray, transfection set 2
[17] = target: T3, recombinant homotrimeric HA, …; assay: trimeric HA microarray, transfection set 2
[18] = target: recombinant homotrimeric HA, A/South Carolina/1/18 H1N1 (Influenza A virus A/South Carolina/1/18 (H1N1)); assay: trimeric HA microarray, transfection set 2
[19] = target: T4, recombinant homotrimeric HA, …; assay: trimeric HA microarray, transfection set 2
[20] = target: T5, recombinant homotrimeric HA, …; assay: trimeric HA microarray, transfection set 2
[21] = target: T6, recombinant homotrimeric HA, …; assay: trimeric HA microarray, transfection set 2
[22] = target: T7, recombinant homotrimeric HA, …; assay: trimeric HA microarray, transfection set 2
[23] = target: recombinant homotrimeric HA, A/Vietnam/1203/04 H5N1 (Influenza A virus A/Vietnam/1203/04 (H5N1)); assay: trimeric HA microarray, transfection set 2
[24] = target: recombinant homotrimeric HA, A/common magpie/Hong Kong/5052/07 H5N1 (Influenza A virus A/common magpie/Hong Kong/5052/07 (H5N1)); assay: trimeric HA microarray, transfection set 2
[25] = target: T8, recombinant homotrimeric HA, A/Solomon …; assay: trimeric HA microarray, transfection set 2
[26] = target: T1, recombinant homotrimeric HA, …; assay: trimeric HA microarray, transfection set 4
[27] = target: recombinant homotrimeric HA, A/Hong Kong/1073/99 H9N2 (Influenza A virus A/Hong Kong/1073/99 (H9N2)); assay: trimeric HA microarray, transfection set 3
[28] = target: recombinant homotrimeric HA, A/northern shoveler/California/HKWF115/07 (Influenza A virus A/northern shoveler/California/HKWF115/2007 (H6N1)); assay: trimeric HA microarray, transfection set 3

| Binder | Trimeric HA Binding RLU [4] [RLU] | Trimeric HA Binding RLU [5] [RLU] | Trimeric HA Binding RLU [6] [RLU] | Trimeric HA Binding RLU [7] [RLU] | Trimeric HA Binding RLU [8] [RLU] | Trimeric HA Binding RLU [9] [RLU] | Trimeric HA Binding RLU [10] [RLU] | Trimeric HA Binding RLU [15] [RLU] | Trimeric HA Binding RLU [16] [RLU] | Trimeric HA Binding RLU [17] [RLU] | Trimeric HA Binding RLU [18] [RLU] | Trimeric HA Binding RLU [19] [RLU] | Trimeric HA Binding RLU [20] [RLU] | Trimeric HA Binding RLU [21] [RLU] | Trimeric HA Binding RLU [22] [RLU] | Trimeric HA Binding RLU [23] [RLU] | Trimeric HA Binding RLU [24] [RLU] | Trimeric HA Binding RLU [25] [RLU] | also measured |
| --- | --- | --- | --- | --- | --- | --- | --- | --- | --- | --- | --- | --- | --- | --- | --- | --- | --- | --- | --- |
| B1 | 78 | 26500 | 18300 | 16100 | 16600 | 27800 | 29800 | 22600 | 23 | 32500 | 24700 | 15600 | 21400 | 19700 | 27300 | 15000 | 16800 | 31400 | Trimeric HA Binding RLU [1]: 38100 RLU; Trimeric HA Binding: RLU [2]: 454 RLU; Trimeric HA Binding: RLU [3]: 7 RLU; Trimeric HA Binding RLU [11]: 19600 RLU; Trimeric HA Binding RLU [12]: 19600 RLU; Trimeric HA Binding RLU [13]: 30000 RLU; Trimeric HA Binding RLU [14]: 21400 RLU; Trimeric HA Binding RLU [26]: 20600 RLU |
| B2 | 41 | 49 | 17700 | 25500 | 18500 | 10800 | 6780 | 882 | 18 | 82 | 25500 | 18700 | 30700 | 24500 | 17600 | 26200 | 7210 | 3270 | Trimeric HA Binding RLU [27]: 24200 RLU; Trimeric HA Binding RLU [28]: 29400 RLU |
